Laboratory results published in paper doi:10.1101/2024.09.13.612588 (bioRxiv, 2024).

Biological target: the molecule itself
Assay: high-speed AFM

B1: Toll/interleukin-1 receptor domain of MyD88 (TIR_(MyD88)), wild type (domain or fragment)
chain: PLGHMPERFDAFICYCPSDIQFVQEMIRQLEQTNYRLKLCVSDRDVLPGTCVWSIASELIEKRCRRMVVVVSDDYLQSKECDFQTKFALSLSPGAHQKRLIPIKYKAMKKEFPSILRFITVCDYTNPCTKSWFWTRLAKALSLP
B1 was tested, and the “stoichiometry N” value was 58 subunits.
